From PMC8072286, “Gcn5-Related N-Acetyltransferases (GNATs) With a Catalytic Serine Residue Can Play Ping-Pong Too” (Frontiers in Molecular Biosciences, 2021)

Substrate: CCCCCCCC(=O)N(C)CCN
Experiment: steady-state acetyltransferase assay, substrate saturation
Format: biochemical, Pseudomonas aeruginosa
Settings: AcCoA held at 0.5 mM; NANMO 0-3.5 mM, used as hydrochloride
From the text: steady-state acetyltransferase assay, substrate saturation on PA3944

B1: PA3944 (Pseudomonas aeruginosa PAO1) (protein)
chain: MNANLPPSAISELHGPRLLLRAWRDSDREAFAEMCADPQVMEFFPSVLDRAQSDALVDRVQAHFAERGYGPWALELPGEAAFIGFTGLFDVTMDVHFAPTVEIGWRLAPAYWGRGLAREAAETALDFAFERLRLPEVVAFTTPPNRRSWGLMERLGMRRDPAEDFDHPLLAADHPMRRHILYRVDAARWAER
notes: heterologous expression; N-terminal polyhistidine tag kept for kinetics, removed for crystallization; monomer in solution
  Km: 1070 ± 30 µM
  kcat: 0.41 s⁻¹
  kcat/Km: 380 M⁻¹ s⁻¹
